Data on 37 molecules can be found in US20200002431A1 (Seagen, published 2020).

B1: hSG16.17 vH2 vK2 (antibody, V domains shown)
VH: QVQLVQSGAEVKKPGASVKLSCKASGYTFTDYYMHWVRQAPGQGLEWIGRINPNSGYTNYAQKFQGRVTMTADKSINTAYVELSRLRSDDTAVYFCTRYMWERVTGFFDFWGQGTMVTVSS
VL: DIQMTQSPSSVSASVGDRVTITCLASEDISDDLAWYQQKPGKAPKVLVYTTSSLQSGVPSRFSGSGSGTDFTLTISSLQPEDFATYFCQQTYKFPPTFGGGTKVEIKR
notes: also called hSG16.17 5
B2: hSG16.17 vH2 vK3 (antibody, V domains shown)
VH: B1 VH
VL: B1 VL with L24R
notes: also called hSG16.17 6
B3: hSG16.17 vH3 vK2 (antibody, V domains shown)
VH: B1 VH with M34I, R50Y, V68A
VL: B1 VL
notes: also called hSG16.17 9; VH3 VK2 humanized antibody
B4: hSG16.17 vH5 vK4 (antibody, V domains shown)
VH: QVQLVQSGAEVKKPGASVKVSCKASGYTFTDYYIHWVRQAPGQGLEWIGYINPNSGYTKYNENFKTRATMTADKSTNTAYVELSSLRSEDTAVYFCTRYMWERVTGFFDFWGQGTMVTVSS
VL: B1 VL with S53R, L78M, T85D
notes: also called hSG16.17 19
B5: hSG16.17 vH5 vK5 (antibody, V domains shown)
VH: B4 VH
VL: B1 VL with L24R, P40S
notes: also called hSG16.17 20
B6: hSG16.17 vH6 vK2 (antibody, V domains shown)
VH: B1 VH with G8R, R50I, N59S, I76T, R85S, D89E
VL: B1 VL
notes: also called hSG16.17 21
B7: hSG16.17 vH6 vK4 (antibody, V domains shown)
VH: B1 VH with G8R, R50I, N59S, I76T, R85S, D89E
VL: B1 VL with S53R, L78M, T85D
notes: also called hSG16.17 23
B8: hSG16.17 vH6 vK3 (antibody, V domains shown)
VH: B1 VH with G8R, R50I, N59S, I76T, R85S, D89E
VL: B1 VL with L24R
notes: also called hSG16.17 22
B9: hSG16.17 vH1 vK5 (antibody, V domains shown)
VH: B4 VH with G8R, V20L, T76I, S85R, E89D
VL: B1 VL with L24R, P40S
notes: also called hSG16.17 4
B10: hSG16.17 vH5 vK3 (antibody, V domains shown)
VH: B4 VH
VL: B1 VL with L24R
notes: also called hSG16.17 18
B11: hSG16.17 vH3 vK4 (antibody, V domains shown)
VH: B1 VH with M34I, R50Y, V68A
VL: B1 VL with S53R, L78M, T85D
notes: also called hSG16.17 11
B12: hSG16.17 vH3 vK3 (antibody, V domains shown)
VH: B1 VH with M34I, R50Y, V68A
VL: B1 VL with L24R
notes: also called hSG16.17 10
B13: hSG16.17 vH5 vK2 (antibody, V domains shown)
VH: B4 VH
VL: B1 VL
notes: also called hSG16.17 17
B14: hSG16.17 vH1 vK4 (antibody, V domains shown)
VH: B4 VH with G8R, V20L, T76I, S85R, E89D
VL: B1 VL with S53R, L78M, T85D
notes: also called hSG16.17 3
B15: hSG16.17 vH1 vK3 (antibody, V domains shown)
VH: B4 VH with G8R, V20L, T76I, S85R, E89D
VL: B1 VL with L24R
notes: also called hSG16.17 2
B16: hSG16.17 vH3 vK5 (antibody, V domains shown)
VH: B1 VH with M34I, R50Y, V68A
VL: B1 VL with L24R, P40S
notes: also called hSG16.17 12
B17: hSG16.17 vH1 vK2 (antibody, V domains shown)
VH: B4 VH with G8R, V20L, T76I, S85R, E89D
VL: B1 VL
notes: also called hSG16.17 1
B18: hSG16.17 vH6 vK5 (antibody, V domains shown)
VH: B1 VH with G8R, R50I, N59S, I76T, R85S, D89E
VL: B1 VL with L24R, P40S
notes: also called hSG16.17 24
B19: hSG16.45 vH1 vK1 (antibody, V domains shown)
VH: EVQLLESGGGLVQPGGSLRLSCAASGFTFNDHWMTWIRQAPGKGLEWISSITNTGGATYYLDSVKGRFTISRDNSKNTLYLQMNSLRAEDTAVYYCTSPGLYFDYWGQGVMVTVSS
VL: EIVLTQSPGTLSASPGERVTISCRASSSVSVMYWYQHKPGQAPRLLIYSTSSLASGVPDRFSGSGSGTDYTLTISRMEPEDFAVYYCHQWSSDPPTFGQGTKLEIKR
notes: also called hSG16.45 1
B20: hSG16.45 vH6 vK5 (antibody, V domains shown)
VH: B19 VH with L5V, G16R, I37V, I48V, S50G, L61A, S75A, T78S, V93L, V110T
VL: B19 VL with A13L, V19A, I21L, R24L, S26T, V57I, M77L
notes: also called hSG16.45 24
B21: rat SG16.45 antibody (antibody, V domains shown)
VH: B19 VH with L5V, G16R, R19K, A23V, K43R, S75A, N77S, A88S, V93T
VL: EIVLTQSPTTTAASPGEKVTITCLATSSVSVMYWYQHKSGASPKLLIYSTSSLASGVPDRFSGSGSGTSYSLTINTMEAEDAATYYCHQWSSDPPTFGSGTKLEIKR
notes: Rat monoclonal antibody; also called rSG16.45; hybridoma well 45
B22: hSG16.45 vH6 vK2 (antibody, V domains shown)
VH: B19 VH with L5V, G16R, I37V, I48V, S50G, L61A, S75A, T78S, V93L, V110T
VL: B19 VL with A13L, V19A, I21L, H37Q, V57I, Y70F, M77L
notes: also called hSG16.45 22
B23: cSG16.45 (antibody, V domains shown)
VH: B19 VH with L5V, G16R, R19K, A23V, K43R, S75A, N77S, A88S, V93T
VL: B21 VL
notes: also called chimeric SG16.45
B24: hSG16.45 vH5 vK3 (antibody, V domains shown)
VH: B19 VH with L5V, I37V, E46V, I48V, L61A, S75A, V110T
VL: B19 VL with A13L, V19A, M77L
notes: also called hSG16.45 19
B25: hSG16.45 vH3 vK5 (antibody, V domains shown)
VH: B19 VH with S50A, L61A, N77S
VL: B19 VL with A13L, V19A, I21L, R24L, S26T, V57I, M77L
notes: also called hSG16.45 12
B26: hSG16.45 vH5 vK2 (antibody, V domains shown)
VH: B19 VH with L5V, I37V, E46V, I48V, L61A, S75A, V110T
VL: B19 VL with A13L, V19A, I21L, H37Q, V57I, Y70F, M77L
notes: also called hSG16.45 18
B27: hSG16.45 vH4 vK2 (antibody, V domains shown)
VH: B19 VH with I37V, L61A, N77S, V110T
VL: B19 VL with A13L, V19A, I21L, H37Q, V57I, Y70F, M77L
notes: also called hSG16.45 14
B28: hSG16.45 vH4 vK5 (antibody, V domains shown)
VH: B19 VH with I37V, L61A, N77S, V110T
VL: B19 VL with A13L, V19A, I21L, R24L, S26T, V57I, M77L
notes: also called hSG16.45 16
B29: hSG16.45 vH1 vK5 (antibody, V domains shown)
VH: B19 VH
VL: B19 VL with A13L, V19A, I21L, R24L, S26T, V57I, M77L
notes: also called hSG16.45 4
B30: hSG16.45 vH5 vK1 (antibody, V domains shown)
VH: B19 VH with L5V, I37V, E46V, I48V, L61A, S75A, V110T
VL: B19 VL
notes: also called hSG16.45 17
B31: hSG16.45 vH4 vK3 (antibody, V domains shown)
VH: B19 VH with I37V, L61A, N77S, V110T
VL: B19 VL with A13L, V19A, M77L
notes: also called hSG16.45 15
B32: hSG16.45 vH6 vK1 (antibody, V domains shown)
VH: B19 VH with L5V, G16R, I37V, I48V, S50G, L61A, S75A, T78S, V93L, V110T
VL: B19 VL
notes: also called hSG16.45 21
B33: hSG16.45 vH4 vK1 (antibody, V domains shown)
VH: B19 VH with I37V, L61A, N77S, V110T
VL: B19 VL
notes: also called hSG16.45 13
B34: hSG16.45 vH1 vK2 (antibody, V domains shown)
VH: B19 VH
VL: B19 VL with A13L, V19A, I21L, H37Q, V57I, Y70F, M77L
notes: also called hSG16.45 2
B35: hSG16.45 vH5 vK5 (antibody, V domains shown)
VH: B19 VH with L5V, I37V, E46V, I48V, L61A, S75A, V110T
VL: B19 VL with A13L, V19A, I21L, R24L, S26T, V57I, M77L
notes: also called hSG16.45 20
B36: hSG16.45 vH6 vK3 (antibody, V domains shown)
VH: B19 VH with L5V, G16R, I37V, I48V, S50G, L61A, S75A, T78S, V93L, V110T
VL: B19 VL with A13L, V19A, M77L
notes: also called hSG16.45 23
B37: hSG16.45 vH1 vK3 (antibody, V domains shown)
VH: B19 VH
VL: B19 VL with A13L, V19A, M77L
notes: also called hSG16.45 3

Where a chain is given by its changes, count along the chain named.

One test has as its target T1, human BCMA (B-cell maturation antigen, CD269) expressed on cells (human, UniProt Q02223 1-184).
T1 construct: Endogenous on myeloma lines (NCI-H929, U266, JJN3) or a full-length clone transfected into HEK 293 cells; also called hBCMA; BCMA expressed on NCI-H929 cells
T1 sequence: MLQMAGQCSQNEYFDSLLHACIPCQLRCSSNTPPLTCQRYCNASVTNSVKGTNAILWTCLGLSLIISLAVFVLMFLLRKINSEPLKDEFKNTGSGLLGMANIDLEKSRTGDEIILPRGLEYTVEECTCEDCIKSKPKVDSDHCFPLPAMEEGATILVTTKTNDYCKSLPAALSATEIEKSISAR
As to the kind of experiment: cell binding, U266 cells, full range of concentration points.
Regarding B1, the binding result is “binds”.

As for B2, the binding result was “binds”.

Another test has as its target T1, human BCMA (B-cell maturation antigen, …). As to the kind of experiment: cell binding, NCI-H929 cells expressing BCMA, 3-pt assay. Here is the method: The six humanized heavy chains and four humanized light chains were tested in all 24 possible permutations for binding to BCMA expressed on NCI-H929 cells, which express about 50,000 molecules of BCMA per cell.
Turning to B3, the binding result was “binds”.

On to B4, for which the binding result was “binds”.

As for B5, the binding result is “binds”.

With B6, the binding result is on record as “binds”.

Regarding B7, the binding result was “binds”.

Consider B8, for which the binding result is “binds”.

For the molecule B9, the binding result was “binds”.

As to B10, the binding result is listed as “binds”.

As for B11, the binding result is “binds”.

Regarding B12, the binding result is “binds”.

B13: the binding result was “binds”.

On to B14, for which the binding result was “binds”.

For B15, the binding result is given as “binds”.

On to B16, for which the binding result is listed as “binds”.

Take B17: the binding result was “binds”.

In the case of B18, the binding result is recorded as “binds”.

For the molecule B19, the binding result is recorded as “binds”.

Consider B20, for which the binding result was “binds”.

On to B21, for which the binding result is listed as “binds”.

On to B22, for which the binding result was “binds”.

On to B23, for which the binding result is on record as “binds”.

Consider B24, for which the binding result is “binds”.

On to B25, for which the binding result is “binds”.

Regarding B26, the binding result is “binds”.

Turning to B27, the binding result is “binds”.

Take B28: the binding result is on record as “binds”.

With B29, the binding result is reported as “binds”.

On to B30, for which the binding result is given as “binds”.

B31: the binding result is “binds”.

Regarding B32, the binding result is listed as “binds”.

Regarding B33, the binding result is listed as “binds”.

Regarding B34, the binding result was “binds”.

On to B35, for which the binding result was “binds”.

Turning to B36, the binding result is recorded as “binds”.

Take B37: the binding result is given as “binds”.
